# Experimental data as given in IntAct's records for PubMed 36435842.
# B1: Golgi phosphoprotein 3 homolog sauron (Drosophila melanogaster (Fruit fly)), Q9VQ93 (parent)
# chain: MNRSDGLVRRSVKPRENGGAEGGLNANTPDDNQDALDNLKDQEDNIDDGDSKETRLTLMEEVLLLGLKDKEGYTSFWNDCISSGLRGCILIELGLRGRVMIEKSGMRRRGLCTRKLILKSDQQTGDVLLDEALKHIKETDPPETVQSWIEYLSGETWNPLKLRYQLKNVRERLAKNLVEKGVLTTEKQNFLLFDMTTHPLSDNVVKCRLVKKIQDSVLSKWVNDPQRMDKRMLALIFLAHASDVIENAFAPLNDDDYEVAMKRVRELLDLDFEAESAKPNANEILWAVFMAFTK
# partner: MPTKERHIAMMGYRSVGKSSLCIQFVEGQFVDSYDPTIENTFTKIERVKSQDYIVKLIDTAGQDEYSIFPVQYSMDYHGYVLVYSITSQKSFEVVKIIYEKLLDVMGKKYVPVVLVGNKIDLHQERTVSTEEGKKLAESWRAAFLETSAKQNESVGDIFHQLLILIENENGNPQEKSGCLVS
# Variants of: B1
# Settings: with rheb_drome Rheb
row,effect of a mutation on the interaction,Variant
1,disrupting interaction strength,K167A;R170L
